Laboratory results as given in publication PMC7935881.

Experiments:
[1] = biological target: no-cys-DgkA (cysteine-free Escherichia coli diacylglycerol kinase) (Escherichia coli); assay: SDS-PAGE; DgkA refolded/reassembled in buffer (8 M urea, 0.2% SDS, 0.08% E. coli membrane total extracts, 0.96% OG, pH 7.8)
[2] = biological target: no-cys-DgkA (cysteine-free Escherichia coli diacylglycerol kinase) (Escherichia coli); assay: solid-state NMR structure; MAS ssNMR, intra- and inter-monomer PRE distance restraints with CS-Rosetta; DgkA reconstituted in bilayers of E. coli membrane total extracts; 272 K

stoichiometry N [1]: 3 | stoichiometry N [2]: 3
Substance: no-cys-DgkA (cysteine-free Escherichia coli diacylglycerol kinase) (enzyme)
